We go through one molecule from paper PMC4757827 (2016).

The target of the test is recombinant importin α1 (construct not stated for this experiment) (Homo sapiens (Human), UniProt P52292). The test is described as follows: ELISA. A general note: An ELISA detects its analyte on a solid surface through an enzyme-linked reagent.

B1: IFN-γ (recombinant) (protein)
chain: QDPYVKEAENLKKYFNAGHSDVADNGTLFLGILKNWKEESDRKIMQSQIVSFYFKLFKNFKDDQSIQKSVETIKEDMNVKFFNSNKKKRDDFEKLTNYSVTDLNVQRKAIHELIQVMAELSPAAKTGKRKRSQMLFRG
B1: the binding result was “no binding”.
